Publication PMC10170298, “Differential regulation of ATP hydrolysis of RIG-I-like receptors by transactivation response RNA-binding protein”

Biological target: T1, TRBP WT (nonphosphorylated) (UniProt Q15633 1-366)
T1 sequence: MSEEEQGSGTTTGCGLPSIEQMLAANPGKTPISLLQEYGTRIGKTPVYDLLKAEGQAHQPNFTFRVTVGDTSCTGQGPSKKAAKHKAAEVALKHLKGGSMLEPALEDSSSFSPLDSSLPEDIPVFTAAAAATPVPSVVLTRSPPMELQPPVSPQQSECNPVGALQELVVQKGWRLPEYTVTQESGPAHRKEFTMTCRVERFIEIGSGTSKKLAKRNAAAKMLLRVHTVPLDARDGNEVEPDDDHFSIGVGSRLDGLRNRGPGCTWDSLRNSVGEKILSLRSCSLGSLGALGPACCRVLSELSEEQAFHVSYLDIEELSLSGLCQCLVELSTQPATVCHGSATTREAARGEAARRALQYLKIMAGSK
Assay: EMSA; 20 mM HEPES pH 7.5, 150 mM NaCl, 1.5 mM MgCl2, 2 mM DTT, 30 C, 30 min; dsRNA 60 nM, TRBP 0-400 pmol; 5% acrylamide gel
Conditions: protein: recombinant; label: none (SYBR Gold stain); blunt

B1: TMEV 45-mer dsRNA (dsRNA)
RNA 1: UUACUAUUGACACUAUGGCUUGCAAACAUGGAUACCCAGAUGUGU
RNA 2: ACACAUCUGGGUAUCCAUGUUUGCAAGCCAUAGUGUCAAUAGUAA
binding result: binds
